Assay results from doi:10.1101/2024.02.03.578754 (bioRxiv, 2024).
Where no end group is shown, it is not given here.

Target: Arabidopsis thaliana O-acetylserine sulfhydrylase (OASS) (Arabidopsis thaliana, UniProt P47998 3-322)
Test: fluorescence polarisation

Arabidopsis thaliana O-acetylserine sulfhydrylase (OASS), sequence (P47998 3-322): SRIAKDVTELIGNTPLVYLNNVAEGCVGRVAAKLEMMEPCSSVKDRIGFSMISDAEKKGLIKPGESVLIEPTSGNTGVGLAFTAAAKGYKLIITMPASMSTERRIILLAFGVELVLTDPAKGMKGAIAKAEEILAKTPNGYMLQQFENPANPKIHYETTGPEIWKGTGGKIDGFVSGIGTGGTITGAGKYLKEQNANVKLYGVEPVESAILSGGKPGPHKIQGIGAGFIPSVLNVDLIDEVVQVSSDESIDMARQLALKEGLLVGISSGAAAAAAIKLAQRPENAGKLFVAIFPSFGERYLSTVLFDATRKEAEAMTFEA

binding result: binds
B1: FITC-labeled SAT-derived peptide YLTEWSDYVI (FITC-SATp) (peptide)
peptide: YLTEWSDYVI
modifications: also: FITC conjugate, position not given here
